Test results published in publication PMC6208443, “Arabidopsis AGDP1 links H3K9me2 to DNA methylation in heterochromatin” (Nature Communications, 2018).

How the values were obtained:
[1] = target: RsAGDP1 AGD12 (residues 26–180) (Raphanus sativus); assay: ITC; Microcal PEAQ-ITC, 25 °C; protein at 0.1 mM, peptide at 1.0–1.5 mM in the same buffer; fit with Origin 7.0
[2] = target: full-length AtAGDP1 (Arabidopsis thaliana) (UniProt Q500V5); assay: as above
Chain of full-length AtAGDP1 (Arabidopsis thaliana) (Q500V5 whole entry): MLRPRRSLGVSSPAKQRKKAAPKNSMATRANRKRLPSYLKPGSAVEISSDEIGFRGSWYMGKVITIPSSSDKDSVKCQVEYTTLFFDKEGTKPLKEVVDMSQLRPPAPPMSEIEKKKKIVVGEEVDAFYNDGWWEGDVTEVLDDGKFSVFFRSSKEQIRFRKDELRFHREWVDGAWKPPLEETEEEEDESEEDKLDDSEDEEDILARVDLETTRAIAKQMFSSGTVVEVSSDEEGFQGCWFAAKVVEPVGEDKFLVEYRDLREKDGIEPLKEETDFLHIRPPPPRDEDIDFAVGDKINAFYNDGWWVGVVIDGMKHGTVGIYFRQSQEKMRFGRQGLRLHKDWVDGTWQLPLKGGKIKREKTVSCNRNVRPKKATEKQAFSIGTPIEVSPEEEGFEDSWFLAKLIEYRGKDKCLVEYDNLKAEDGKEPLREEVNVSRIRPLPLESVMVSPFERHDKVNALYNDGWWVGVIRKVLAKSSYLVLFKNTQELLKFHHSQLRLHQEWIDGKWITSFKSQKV

Row | fold decrease of binding against H3K9me2 [1] [fold] | stoichiometry N [2] | Substance
1 | 5 |  | H3K4me3K9me2 peptide
2 |  | 3 | H3K9me2 peptide (ITC)
